Assays:
[1] = target: (I27)8 polyprotein of the I27th Ig domain of titin; experiment: single-molecule force-clamp spectroscopy (AFM) with a kinetic model fit; polyprotein tethered between gold and cantilever, 5 uM chaperone in solution (DnaK with ADP); PBS + 5 mM MgCl2 pH 7.4, 22 C; binding to the collapsed state during the quench at 0 pN (tq 0.5-15 s); constants from a multiparametric fit of the kinetic model to the refolding kinetics
[2] = target: (I27)8 polyprotein of the I27th Ig domain of titin
[3] = target: (I27)8 polyprotein of the I27th Ig domain of titin; experiment: single-molecule force-clamp spectroscopy (AFM); collapsed (molten globule-like) states: polyprotein tethered between a gold surface and the cantilever tip, unfolded, force quenched for tq 0.5 to 15 s with 5 uM chaperone (DnaK with ADP); refolding yield read in a test pulse; constants from a multiparametric fit of a kinetic model; PBS + 5 mM MgCl2, pH 7.4, 22 C
[4] = target: ubiquitin polyprotein composed of nine identical repeats (Ubi)9 (UniProt P0CG48); experiment: as above
[5] = target: ubiquitin polyprotein composed of nine identical repeats (Ubi)9 (UniProt P0CG48)
[6] = target: ubiquitin polyprotein composed of nine identical repeats (Ubi)9 (UniProt P0CG48); remark: listed apart in the source
[7] = target: ubiquitin polyprotein composed of nine identical repeats (Ubi)9 (UniProt P0CG48); remark: listed apart in the source
[8] = target: ubiquitin polyprotein composed of nine identical repeats (Ubi)9 (UniProt P0CG48); remark: listed apart in the source
[9] = target: ubiquitin polyprotein composed of nine identical repeats (Ubi)9; experiment: single-molecule force-clamp spectroscopy (AFM) with a kinetic model fit; (Ubi)9 tethered between gold and cantilever, 5 uM DnaJ in solution; PBS + 5 mM MgCl2 pH 7.4, 22 C; binding to ubiquitin held extended at 170 pN for text 0-30 s, quench 5 s; kon and koff of the extended state as free parameters of the kinetic model
[10] = target: ubiquitin polyprotein composed of nine identical repeats (Ubi)9 (UniProt P0CG48); experiment: single-molecule force-clamp spectroscopy (AFM); extended state: polyprotein tethered between a gold surface and the cantilever tip, unfolded and held extended at high force (120 pN; 170 pN for the constants of the extended conformation) for text 1 to 30 s with 5 uM chaperone (DnaK with ADP); refolding yield read in a test pulse after tq = 5 s; constants from a multiparametric fit of a kinetic model; PBS + 5 mM MgCl2, pH 7.4, 22 C
[11] = target: ubiquitin polyprotein composed of nine identical repeats (Ubi)9; experiment: single-molecule force-clamp spectroscopy (AFM) with a kinetic model fit; (Ubi)9 tethered between gold and cantilever, 5 uM chaperone in solution (DnaK with ADP); PBS + 5 mM MgCl2 pH 7.4, 22 C; binding to ubiquitin mechanically unfolded and held extended at 120 pN; constants from a multiparametric fit of ordinary differential equations to the refolding yields

Chain of DnaK (Hsp70) (P0A6Y8 whole entry): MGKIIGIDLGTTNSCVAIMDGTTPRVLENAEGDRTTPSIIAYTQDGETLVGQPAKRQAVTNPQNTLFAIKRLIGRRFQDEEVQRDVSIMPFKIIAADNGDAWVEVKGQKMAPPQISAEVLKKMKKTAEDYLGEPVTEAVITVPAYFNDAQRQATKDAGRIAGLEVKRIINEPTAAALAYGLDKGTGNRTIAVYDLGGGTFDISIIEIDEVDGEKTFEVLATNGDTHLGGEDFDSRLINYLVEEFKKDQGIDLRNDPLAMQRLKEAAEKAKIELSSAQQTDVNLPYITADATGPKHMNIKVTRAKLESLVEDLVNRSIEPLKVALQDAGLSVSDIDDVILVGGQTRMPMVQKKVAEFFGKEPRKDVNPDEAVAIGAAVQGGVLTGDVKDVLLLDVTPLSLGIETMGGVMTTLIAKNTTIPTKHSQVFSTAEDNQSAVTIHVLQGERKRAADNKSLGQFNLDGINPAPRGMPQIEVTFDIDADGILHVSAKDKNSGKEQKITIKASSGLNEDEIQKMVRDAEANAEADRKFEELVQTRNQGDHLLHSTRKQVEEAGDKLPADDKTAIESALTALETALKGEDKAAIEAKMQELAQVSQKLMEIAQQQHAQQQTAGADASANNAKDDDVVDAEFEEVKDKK
Chain of DnaJ (Hsp40) (P08622 whole entry): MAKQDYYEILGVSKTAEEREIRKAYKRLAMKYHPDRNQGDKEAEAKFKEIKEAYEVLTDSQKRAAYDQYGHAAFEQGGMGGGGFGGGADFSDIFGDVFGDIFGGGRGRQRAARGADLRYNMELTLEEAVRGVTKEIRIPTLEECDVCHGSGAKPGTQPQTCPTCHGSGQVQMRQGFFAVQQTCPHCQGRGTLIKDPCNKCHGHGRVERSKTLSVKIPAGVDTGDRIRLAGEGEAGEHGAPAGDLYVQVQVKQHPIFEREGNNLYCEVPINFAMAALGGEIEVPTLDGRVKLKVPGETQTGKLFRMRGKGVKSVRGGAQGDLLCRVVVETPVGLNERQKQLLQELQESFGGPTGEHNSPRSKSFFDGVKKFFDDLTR

| koff [1] [s⁻¹] | refolding yield of I27 with DnaK(ADP) [2] [%] | Kd [3] [nM] | Kd [4] [nM] | plateau of the refolding yield of ubiquitin in force-quench trajectories (tq 0.5 to 15 s) with 5 μM DnaK(ADP) [5] [%] | plateau of the refolding yield of ubiquitin in force-quench trajectories (tq 0.5 to 15 s) with 5 μM DnaJ (~75% without DnaJ) [6] [%] | rate of the exponential decrease of the refolding efficiency of ubiquitin with the time held extended (text 1 to 30 s, tq = 5 s) with 5 μM DnaJ [7] [s⁻¹] | kon [3] [M⁻¹ s⁻¹] | refolding percentage of ubiquitin after 15 s stretched at 50 to 300 pN with DnaJ, tq = 5 s (10% at 150 to 170 pN, ~30% at 300 pN, ~50% at 50 pN) [8] [%] | kon [9] [M⁻¹ s⁻¹] | Kd [10] [nM] | koff [11] [s⁻¹] | kon [11] [M⁻¹ s⁻¹] | Substance |
| --- | --- | --- | --- | --- | --- | --- | --- | --- | --- | --- | --- | --- | --- |
| 0.029 | 50 | 270 | 140 | 30 |  |  |  |  |  |  |  |  | DnaK (Hsp70) (from UniProt P0A6Y8 1-638) (natural protein) |
| 0.0472 |  | 330 |  |  | 30 | 0.27 | 250000 | 50 | 48700 | 940 | 0.0492 | 29900 | DnaJ (Hsp40) (from UniProt P08622 1-376) (natural protein) |

Source: article PMC5817926
